Measured values published in the RNAGym collection of RNA variant scans (doi:10.1073/pnas.2313332121).
Variants at the floor of the assay were thinned out.

B1: TPR 5TU (parent)
chain: GGAUCUUCUCGAUCUAACAAAAAAGACAAAUCUGCCACAAAGCUUGAGAGCAUCUUCGGAUGCAGAGGCGGCAGCCUUCGGUGGCGCGAUAGCGCCAACGUUCUCAACUAUGACACGCAAAACGCGUGCUCCGUUGAAUGGAGUUUAUCAUG

Variants of: B1
Assay: polymerase ribozyme fitness, log enrichment relative to wild type (log ratio); higher = more active; in vitro selection for triplet polymerase activity
How it was run: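 A heterodimeric triplet polymerase ribozyme had each of its subunits mutagenized by PCR into a library, which was transcribed. One round of in vitro selection, done in triplicate, annealed each library with a biotinylated primer, its partner subunit and triplets, then incubated it frozen at −7 °C before gel excision of extended constructs, streptavidin-bead capture and RT-PCR. Fitness is the logarithm of genotype enrichment relative to wild-type enrichment, based on Illumina sequencing of inputs and outputs and inverse-variance-weighted replicate averages. A base-2 logarithm is used, and genotypes were kept only with ≥10 input reads and ≥1 read per output.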

| Variant | polymerase ribozyme fitness (log ratio) |
| --- | --- |
| GGAUCUUCUCGAUCUAACAAAAAAGCCAAAUCUGCCACAAAGCUUGAGAGCAUCUUCGGAUGCAGAGGCGGCAGCCUUCGGUGGCGCGAUAGGGCCAACGUUCUCAACUAUGACACGCAAAACGCGUGCUCCGUUGAAGUGAGUUUAUCAUG [A26C C93G U139G G140U] | -4.11 |
| GGAUCUUCUCGAUCUAACCAAAAGGACAAAUCUGCCACAAAGCUUGAGAGCAUCUUCGGAUGCAGAGGCGGCAGCCUUCGGUGGCGCGAUAGCUGCAACGUUCUCAACUAUGACACGCAAAACGCGUGCUCCGUUGAAUGGAGUUUAUCAUG [A19C A24G G94U C95G] | ≤ -4.2 |
| GGAUCUUCUCGAACUAACAAAAAAGACAAAUCUGCCACAAAGCUUGAGAGCGUCUACGGAUGCAGAGGCGGCAGUCUACGGUGGCGUGAUAGAGCCAACGUUCUCAACUAUGACACGCAAAACGCGUGCUCCGUUCAAUGGAGUUUAUAAUG [U13A A52G U56A C75U U78A C87U C93A G136C C149A] | ≤ -4.2 |
| GGAUCUUCUCGAUCUAACAAAAAAGACAAAUCUGCCACAAAGCUUGAGAGCUUCUUCGGAUGCAGAGGCGGCAGCCUUCGGUGGCGCGAUAGCGCCAACGUUCUCAACUAUGACACGCAAAACGUGUGCUCCGUUGAAUGGAGUUUAUCAUG [A52U C125U] | -1.42 |
| GGAUCUUCUCGAUCUAACAAAAAAGACAAAUCUGCCACCAAGCUUGAGAGCAUCUUCGAAUGCAGAGGCGGCAGCCUUCGGUGGCGAGAUAGCGCCAACGUUCUCAACUAUGACACGCAAAACGCGUGCUCCGUUGAAGGGAGUUUAUCAUG [A39C G59A C87A U139G] | ≤ -4.2 |
| GGAUCUUCUCGAUCUAACAAAAAAGACAAAUCUGCCACAACGCUUGAGAGCAUCUUCGGAUGCAGAGGCGGCAGCCUUCGGUGGCGCGAUAGCGCCAACGUUCUCACCUAUGACACGCAAAACGCGUGCUCCAUUGAAUGGAGGUUAUCAUG [A41C A107C G133A U144G] | ≤ -4.2 |
| GGAUCUUCUCGAUCUAACAAAAAAGACAAAUCUGCCACAAAGCUUGAGAGCAUCUUCGGAUGCAGAGGCGACAGCCUUCGGUGGUGCGAUAGCGCAAACGUUCUCAGCUAUGACACGAAAAACGCGUGCUCCGUUGAAUGGAGUUUAUCAUG [G71A C85U C96A A107G C118A] | ≤ -4.2 |
| GGAUCUUCUCGAUCUAACAAAAAAGACAAAUCUGCCACAACGCUUGAGCGCAUCUUCGGAUGCAGAGGCGGCAGCCUUCGAUGGCGCGAUAGCGCCCACGUUGUCAACUAUGACACGCAAAACUCGUGCUCCGCUGAAUGGAGUUUAUCAUG [A41C A49C G81A A97C C103G G124U U134C] | ≤ -4.2 |
| GGAUCUUCUCGAUCUAACAUAAAAGACAAAUCUGCCACAAAGCUUGAGAGCAUCUUAGGAUGCAGAGGCGGCAGCCUUCGGUGUCGCGAUAGCGCCAACGUUCUCAACUAUGACACGCAAAACGCGUGCUCCGUUGAAUGGAGUUUAUCAUG [A20U C57A G84U] | -3.17 |
| GGAUCUUCUCGAUCUAACAAAAAAGACAAAUCUGCCACAAAGCUUGAGAGCAUCUUCGGAUGCAGAGGCGGCAGCAUUCGGUGGCGUGAUAGCGCCAACGUUCUCAACUAUGACACGCAAAACGCGUGCUCCGUUGAAUGGGGUUUAUCAUG [C76A C87U A142G] | -1.46 |
| GGAUCUUCUCGAUCUAACAAAAAAGACAAAUCUGCCACAAAGCUUGAGAGCAUCUUCGGAUGCAGAGGCGGCAGCCUUCGGUGGAGCGAUAGCGCUAACGUUCUCAACUAUGACACGCAAAACGCGUGCUCCGUUGUAUGGAGAUUAUCAUG [C85A C96U A137U U144A] | ≤ -4.2 |
| GGAUCUUCUCGAUCUAACAAAAAAGACAAAUCUGCCACAAAGCUUGAGAACAUCUUCGGAUGCAGAGGCGGCAGCCUUCGGUGGCGCGAUAGCGCUAACGUUCUCAACUAUGACACGCAAAACGCGUGCUCCGUUGAAUGUAGUUUAUCAUG [G50A C96U G141U] | -0.125 |
| GGAUCUUCUCGAUCUAACAAAAAAGACAAAUCUGCCACAAAGCUUGAGAGCAUCUUCGGGUGCAGAGGCGGCAGCCUUCGGUGGCGCGAUAGGGCCAACGUUCUCAACUAUGACACGCAAAACGCGUGCUCCGUUGAAUGGAGUUUGUCAUG [A60G C93G A147G] | -4.1 |
| GGAUCUUCUCCAUCUAAGAAAACAGACAAAUCUGCCACAAAGCUUGAAAGCAUCUUCGGAUGCAGAGGCGGCAGCCUUCGGUGGCGCUAUAGGGCCAACGUUCUCAACUAUGACACGCAAAACGCGUGCUCCGUUGAAUGGAGAUUAUCAUG [G11C C18G A23C G48A G88U C93G U144A] | ≤ -4.2 |
| GGAUCUUCUCGAUCUAACAAAAAAGACAAAUCUGCCACAAAGCUUGAGAGCAUCUUCGGAUGCAGAGGCGGCAGCCUUCGGUGGCGCGAUAACGCCAACGUUCUCAACUAUGACACGCAAAACGCGUGCUCCGUUGAAUGGAGUUUACCAUG [G92A U148C] | -4.02 |
| GGAUCUUCUCGAUCUAACAAAAAAGACAAAUCUGCCACAAAGCUUGAGAGCAUCUUCGGAUGCAGAGGCGGCAGCCUUCGGUCGCGCGAUAGCGCCAACGUUCUCGACUAUGACACGCAAAACGCGUGCUCCGUUGAAUGGAGUUUAUCAUG [G83C A106G] | -0.352 |
| GGAUCUUCUCGAUGUAACAAAAAACACAAAUCUGCCACAAAGCUUGUGAACAUCUUCGGAUGCAGAGGCGGCAGCCUUCGGUGGCGCGAUAGAGCCAACGUACUCAACUAUGACACGCAAAACCCGUGCUCCGUUGAAUGGAGUUUAUCAUG [C14G G25C A47U G50A C93A U102A G124C] | ≤ -4.2 |
| GGAUCUUCUCGAUCUAACAAAAGAGACAAAUCGGCCACAAAGCUUGAGAGCAUCUUCGGAUGCAGAGGCGGCAGCCUUCGGUGGCGCGAUAGCGCCAACCUUCUCAACUAUGACACGCAAAACGCGUGCUCCGUUGAAUGGAGUUUACCAUG [A23G U33G G100C U148C] | ≤ -4.2 |
| GGAUCUUCUCGAUCUAACAAAAAAGACAAAUCUGCCACAAACCUUGAGAGCAUCUUCGGAUCCAGAGGCGGCCGCCUUCGGUGGCGCGAUAGCUCCAACGUUCUCAACUAUGACACGGAUAACGCGUGCUCCCUUGAAUGGAGUUUAUCAUG [G42C G62C A73C G94U C118G A120U G133C] | ≤ -4.2 |
